# In publication PMC3877406, “Characterization of VCAM-1-Binding Peptide-Functionalized Quantum Dots for Molecular Imaging of Inflamed Endothelium” (PLoS ONE, 2013):
# Side chains are listed from the residue outwards. Ends that are not written are not given here. amino‑PEG‑coated CdSeTe/ZnS quantum dot = amino-PEG-coated CdSeTe/ZnS quantum dot; sulfo‑SMCC = sulfosuccinimidyl-4-(N-maleimidomethyl)cyclohexane-1-carboxylate
# T1: recombinant human VCAM-1 (human, UniProt P19320 25-698)
# T1 construct: vascular cell adhesion molecule 1 (VCAM-1), human, recombinant; A bought recombinant VCAM-1 is likely the soluble extracellular part, perhaps with a tag or Fc; also called recombinant VCAM-1; vascular cell adhesion molecule 1; source: bought: R&D Systems
# T1 sequence (looked up): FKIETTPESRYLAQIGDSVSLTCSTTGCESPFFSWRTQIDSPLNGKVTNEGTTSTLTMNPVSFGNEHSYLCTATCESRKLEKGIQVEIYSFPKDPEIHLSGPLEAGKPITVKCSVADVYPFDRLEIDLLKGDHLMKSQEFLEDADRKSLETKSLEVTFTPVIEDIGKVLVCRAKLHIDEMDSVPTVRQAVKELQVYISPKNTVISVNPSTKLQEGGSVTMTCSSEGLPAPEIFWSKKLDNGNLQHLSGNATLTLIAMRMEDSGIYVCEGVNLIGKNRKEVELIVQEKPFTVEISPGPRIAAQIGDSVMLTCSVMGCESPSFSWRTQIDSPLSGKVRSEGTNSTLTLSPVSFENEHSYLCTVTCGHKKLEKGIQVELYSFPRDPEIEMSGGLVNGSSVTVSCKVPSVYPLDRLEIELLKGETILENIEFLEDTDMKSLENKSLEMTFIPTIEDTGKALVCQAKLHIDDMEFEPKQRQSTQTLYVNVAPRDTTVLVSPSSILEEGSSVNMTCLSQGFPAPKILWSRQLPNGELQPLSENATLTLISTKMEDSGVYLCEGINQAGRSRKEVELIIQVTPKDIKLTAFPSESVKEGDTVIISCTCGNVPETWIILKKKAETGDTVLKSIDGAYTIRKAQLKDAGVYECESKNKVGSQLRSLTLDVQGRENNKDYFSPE
# B1: VCAM-1 binding peptide functionalized QDs (VQDs) (peptide)
# peptide: VHPKQHRGGSKGC([sulfo‑SMCC-amino‑PEG‑coated CdSeTe/ZnS quantum dot])
# notes: source: synthetic peptide (Innovagen, Sweden), conjugated to Qdot 705 ITK Amino (PEG) Quantum Dots (Invitrogen) with sulfo-SMCC
# Biological target: T1, recombinant human VCAM-1
# Assay: blue-shift of the quantum dot fluorescence peak (spectra by confocal microscope); VQDs mixed with recombinant human VCAM-1 in tube in 10:1 and 1:1 molar ratios, 5 hours at room temperature; a drop dried on a slide; excitation 405 nm; blue-shift seen at 1:1, not at 10:1
# Conditions: both partners purified
binder,measurement,value
B1,binding result,binds
